Resistance evaluation data for ten molecules are collected here from US20230212587A1, “Mutant Hydroxyphenylpyruvate Dioxygenase Polypeptide, Encoding Gene Thereof and Use Therefor” (Beijing Dabeinong Biotechnology Co., Ltd., priority 2019, published 2023).

Substitutions are numbered along the chain they refer to. In names and notes the source's numbering stands.

To fix the notation:
B1: GsHPPDm-F372G: Gossypium hirsutum HPPD mutant F372G, SEQ ID NO: 299 (protein)
chain: MVQTNQSGSGNDFKLVGFSNFVRSNPKSDRFTVKRFHHIEFWCTDATNVARRFSWGLGMQFVAKSDLSTGNLTHASYLLRSRDLNFLFTAPYSPSIAVAQNLSPQSTASIPSFDHSLCRSFAATHGLGVRAIAIEVDDAETAFTTSVTHGALPFCPPTPLGDVATIAEVKLYGDVVLRYVSYTTTINSDHDFLPGFEKIEDTLSYPLDYGLRRLDHAVGNVPELGPAVSYVKSFTGFHEFAEFTAEDVGTSESGLNSVVLANNEEMVLLPMNEPVFGTKRKSQIQTYLEHNEGAGVQHLALVSEDIFKTLREMRKRSFVGGFEFMPSPPPTYYKKLKQRAGDILSDEQIKECEELGILVDRDDQGTLLQIGTKPVGDRPTIFIEIIQRIGCMVKDEEGKQYQKGGCGGFGKGNFSELFKSIEEYEKSLEAKQSQNP
modifications: GsHPPDm-F372G Amino Acid Sequence
B2: TaHPPDm-F372G: Triticum aestivum HPPD mutant F372G, SEQ ID NO: 301 (protein)
chain: MPPTPTTPAATGAGAAAAVTPEHARPRRMVRFNPRSDRFHTLSFHHVEFWCADAASAAGRFAFALGAPLAARSDLSTGNSVHASQLLRSGNLAFLFTAPYANGCDAATASLPSFSADAARRFSADHGLAVRSIALRVADAAEAFRASVDGGARPAFSPVDLGRGFGFAEVELYGDVVLRFVSHPDGTDVPFLPGFEGVSNPGAVDYGLTRFDHVVGNVPELASAAAYVAGFTGFHEFAEFTTEDVGTAESGLNSMVLANNSEGVLLPLNEPVHGTKRRSQIQTFLEHHGGPGVQHIAVASSDVLRTLREMRARSAMGGFDFLPPPLPKYYEGVRRIAGDVLSEAQIKECQELGVLVDRDDQGVLLQIGTKPVGDRPTLFLEMIQRIGCMEKDERGEEYQKGGCGGFGKGNFSELFKSIEDYEKSLEAKQSAAVQGS
modifications: TaHPPDm-F372G Amino Acid Sequence
B3: N1HPPDm-F372G: Sphingobium sp. N1 HPPD mutant F372G, SEQ ID NO: 337 (protein)
chain: MAADSENPLGLHGFAFAEFTSPDPAAMARQFEQLGFVPAARRKDRGLTLYRQGRIAFILNAGEGEQASAFRAAHGPSANGMAFNVADAKAAHRHAIQSGATDADTAQSALPGTYAIEGIGDSLLYLVDSDPFADWDEVPGWREASAERGVGLDLLDHLTHNVRRGQMRVWSEFYATLFGFEEQKFFDIKGQATGLFSQAMIAPDHEIRIPLNESQDDNSQIEEFIREYNGEGIQHLALTTPDIYSTVEKLRANGVRLQDTIDTYYDLVDERVPGHGEDLARLRKNRILIDGDVHDEGLLLQIGTETMFGPIFFEIIQRKGNEGFGNGNFQVLYESIELDQIRRGVVTVDA
modifications: N1HPPDm-F372G Amino Acid Sequence
B4: N3HPPDm-F372G: Burkholderia sp. N3 HPPD mutant F372G, SEQ ID NO: 341 (protein)
chain: MQIPNWENPVGTDGFEFIEYTAPDPKALGQLFERMGFTAIARHRHKDVTVYRQGDINFIINAEPHSFAQRFARLHGPSICAIAFRVQDAAKAYQHALELGAWGFDNKTGPMELNIPAIKGIGDSLIYFVDRWRGKNGAQPGAIGDISIYDVDFEPIAGANPNPAGHGLTYIDHLTHNVHRGRMQEWAEFYERLFNFREVRYFDIEGKVTGVKSKAMTSPCGKIRIPINEEGSDTAGQIQEYLDAYHGEGIQHIALGTNDIYGAVDGLRGKEVKLLDTIDTYYELVDRRVPDHGESLDELKKRKILIDGARDDLLLQIGTENQIGPIFFEIIQRKGNQGFGEGNFKALFESIELDQIRRGVVQDKA
modifications: N3HPPDm-F372G Amino Acid Sequence
B5: N4HPPDm-F372G: Burkholderia sp. N4 HPPD mutant F372G, SEQ ID NO: 343 (protein)
chain: B4 chain with H65D, N160T, N258S, N343T
modifications: N4HPPDm-F372G Amino Acid Sequence
B6: CyHPPDm-F372G: Cyanobacteria HPPD mutant F372G, SEQ ID NO: 335 (protein)
chain: MEFDYLHLYVDDYQSAHRCYQRQWGFTCVNKIITDQGITGIYQQGQILLLISASESSLSRYADYLQKHPPGVGEVAWQVANWQKIQHQLSELQIETTPVIHPLTKAEGLTFLLWGDVHHSIYPVRSELNQNKTLHGVGLTTIDHVVLNIAADQFTQASQWYQQVFGWSVQQSFTVNTPHSGLYSEALASANGKVQFNLNCPTNNSSQIQTFLANNHGAGIQHVAFSTTSITRTVAHLRERGVNFLKIPTGYYQQQRNSSYFNYASLDWDTLQCLEILLDDQDNTGERLLLQIGSQPCYGVGTLFWEIIERRHRAKGFGQGNFQALYEAVETLEKQLEVP
modifications: CyHPPDm-F372G Amino Acid Sequence
B7: N2HPPDm-F372G: Sphingobium sp. N2 HPPD mutant F372G, SEQ ID NO: 339 (protein)
chain: MTLFDNPLGLDGFEFVEFSAPAKGMLEPVFAAMGFVMIARHRSKDVQLWRQGGINLIANYEPRSPAAYFAAEHGPSACGMGWRVRNAAKAYELAVERGAEPVDVKTGPMELRLPAIRGIGGSIIYLIDRYEDEDGGLSIYDIDFVYEPGVDRHPEGAGFKIIDHLTHNVYGGRMAHWASFYERVFGFREIRYFDIKGEYTGLTSKAMTAPDGKIRIPLNEEGKAGGGQIEEFLRAYNGEGIQHIAFLCDDLIAAWDKLKALGTPLMTAPPATYYEMLDERLPGHGEPVAELQKRGILLDGSTQQGDPRLLLQIGGQATIGPVFFEFIQRKKDEGFGEGNFTALFESMERDQLRRGTLNAGESA
modifications: N2HPPDm-F372G Amino Acid Sequence
B8: ZmHPPDm-F372G: Zea mays HPPD mutant F372G, SEQ ID NO: 295 (protein)
chain: MPPTPTAAAAGAAVAAASAAEQAAFRLVGHRNFVRFNPRSDRFHTLAFHHVELWCADAASAAGRFSFGLGAPLAARSDLSTGNSAHASLLLRSGSLSFLFTAPYAHGADAATAALPSFSAAAARRFAADHGLAVRAVALRVADAEEAFRTSVAAGARPAFGPVDLGRGFRLAEVELYGDVVLRYVSYPDGAAGEPFLPGFEGVASPGAADYGLSRFDHIVGNVPELAPAAAYFAGFTGFHEFAEFTTEDVGTAESGLNSMVLANNSENVLLPLNEPVHGTKRRSQIQTFLDHHGGPGVQHMALASDDVLRTLREMQARSAMGGFEFMAPPTSDYYDGVRRRAGDVLTEAQIKECQELGVLVDRDDQGVLLQIGPKPVGDRPTLFLEIIQRIGCMERDEKGQEYQKGGCGGFGKGNFSQLFKSIEDYEKSLEAMQAAAAATAQGS
modifications: ZmHPPDm-F372G Amino Acid Sequence
B9: BdHPPDm-F372V: Brachypodium distachyon HPPD mutant F372V, SEQ ID NO: 355 (protein)
chain: MPPPATTAAPAAAAVTPEHARPPRRVARVNPRSDRFSALSFHHVELWCADAASAAGRFSFALGAPPAARSDLSTGNSAHASILLRSGSLAFLFTAPYAPSPASDSAASIPSFSASAARQFTADHGGLAVRAVALRVSSASDAFHASVSAGARPSFPPADLGQGFALAEVELYGDVVLRFISHPDENTEIPFLPGFESVSNPGASTYGLTRFDHVVGNVPSLAPVAAYIAGFTGFHEFAEFTAEDVGTADSGLNSVVLANNSERVLLPLNEPVHGTKRRSQIQTYLDHHGGPGVQHIALASDDVLRTLREMRARSAMGGFEFLAPPPPNYYDGVRRRAGDVLSEAQIKECQELGVLVDRDDQGVLLQIVTKPVGDRPTLFLEMIQRIGCMEKDEIGQEQQKGGCGGFGKGNFSELFRSIEEYEKSLEAKQSAVVQES
modifications: BdHPPDm-F372V Amino Acid Sequence
B10: HvHPPDm-F372V: Hordeum vulgare HPPD mutant F372V, SEQ ID NO: 357 (protein)
chain: MPPTPTTPAATGAAAAVTPEHARPHRMVRFNPRSDRFHTLSFHHVEFWCADAASAAGRFAFALGAPLAARSDLSTGNSAHASQLLRSGSLAFLFTAPYANGCDAATASLPSFSADAARRFSADHGIAVRSVALRVADAAEAFRASRRRGARPAFAPVDLGRGFAFAEVELYGDVVLRFVSHPDGTDVPFLPGFEGVTNPDAVDYGLTRFDHVVGNVPELAPAAAYIAGFTGFHEFAEFTAEDVGTTESGLNSVVLANNSEGVLLPLNEPVHGTKRRSQIQTFLEHHGGPGVQHIAVASSDVLRTLRKMRARSAMGGFDFLPPPLPKYYEGVRRLAGDVLSEAQIKECQELGVLVDRDDQGVLLQIVTKPVGDRPTLFLEMIQRIGCMEKDERGEEYQKGGCGGFGKGNFSELFKSIEDYEKSLEAKQSAAVQGS
modifications: HvHPPDm-F372V Amino Acid Sequence

The subject of the first test is Arabidopsis thaliana T1 plants. Briefly: Topramezone tolerance of transgenic Arabidopsis thaliana T1 plants (pesticide damage grade by bleached leaf area, score, resistance evaluation). Type of test: in vivo. Conditions: topramezone 25 g ai/ha (1x); HPPD F372G mutants, Table 6. Summed up: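 Eighteen days after sowing, wild-type and HPPD-transgenic T1 Arabidopsis receive a topramezone spray at 1×, 2× or 4× field rate (25–100 g ai/ha) or water. Seven days later each plant is graded by its proportion of bleached leaf area.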
In the case of B1, the Resistance evaluation result is given as “Moderately resistant”.

Regarding B2, the Resistance evaluation result is “Highly resistant”.

For the molecule B3, the Resistance evaluation result is reported as “Highly resistant”.

As to B4, the Resistance evaluation entry is recorded as “Highly resistant”.

On to B5, for which the Resistance evaluation entry was “Highly resistant”.

Turning to B6, the Resistance evaluation entry is reported as “Moderately resistant”.

With B7, the Resistance evaluation result is reported as “Highly resistant”.

On to B8, for which the Resistance evaluation result is “Highly resistant”.

Staying with this test, now noted: topramezone 25 g ai/ha (1x); HPPD F372V mutants, Table 7.
As to B9, the Resistance evaluation result was “Highly resistant”.

In the case of B10, the Resistance evaluation result is listed as “Highly resistant”.

The test is the same for the next values; noted with them: topramezone 100 g ai/ha (4x); HPPD F372G mutants, Table 6.
On to B1, for which the Resistance evaluation entry is reported as “Non-resistant”.

With B2, the Resistance evaluation result is “Moderately resistant”.

As to B3, the Resistance evaluation entry is on record as “Highly resistant”.

With B4, the Resistance evaluation result was “Highly resistant”.

As for B5, the Resistance evaluation entry is on record as “Highly resistant”.

In the case of B6, the Resistance evaluation result is “Non-resistant”.

Take B7: the Resistance evaluation entry is recorded as “Highly resistant”.

Turning to B8, the Resistance evaluation result is “Moderately resistant”.

Staying with this test, now noted: topramezone 100 g ai/ha (4x); HPPD F372V mutants, Table 7.
In the case of B9, the Resistance evaluation entry is recorded as “Poorly resistant”.

For the molecule B10, the Resistance evaluation result is listed as “Poorly resistant”.
